Source: the DeepSol protein solubility set

assay: soluble on expression in E. coli; label from the status in PepcDB or PDB records

Soluble on expression in E. coli, not soluble:
MGSDKIHHHHHHMENVVPPFKVDVAGTFLLPAALREAREQYRNEQISLLTLRAVEDAEIRNLVDRLKAEGLKVVTDGRFRSDAWPLDFMCGLDGIRFRDDRKTSVELTGRIDVHHHPVLDDFVFLTGVTGGDVIAKQVLPAPSRLLAELMKDANRTELDSVYPDREILLVDLAQTYQKLIMELYRSGCRYLQLDDATRTVTDNAIRVNNMALENLPADLFIAFHSPTEMLFSLQGIHAFFLDYDSECCGKNRLLWFIREKQSVFGFVLSHYPVEEELEELRAKIDQIIRYIPSHRFSLCIPNAEVLPSESYEAAEEKQWHTLKMAEMVAGELWPEEG
MGSDKIHHHHHHMAVTLYSSIATPHNKNTHHYFTRRTFLPDQQNSLWKIEAGFVRTFTYLENGTTVALGLWGPGDILGRALSKLEPYQMECLTKVEATIVPIEEWKNPTDTLLAHIQQAEELMVIRSYKKVDTMLIKLLAWLSKKFGSEVDKGRLIDMRLTHEDLAEMLGSTRVTITRILGQFEEEGLINRLSLHRIVLKEEDIWYYEI
MGSDKIHHHHHHMKESMSITSSTYASALLTLPWGTPLEQWPDNLIAALPRGISRHIVRFVGINRGIVAVKEIGARTAHHEYKMLRELQRLGAPSVRPVAVITGRHPAEEDYGELTAALVTEHLEFSLPYREIFSRHLTVVESEKLIRALSVLLVRMHLLNFYWGDVSLSNTLFRRDAETYSAYLVDAETGEFQPNLSESRRLYDVDIARVNIIGELMDLQAGECLDKSIDVIALGGLVESSYLELWTELTAEESVDASEYWRLSERIDRLNQLGFDVGELKVTKDDSRQVVRIRPVVVDPGHYRAELLSLTGLSVEEHQAQRLLGSIQAYQAVECGPHVGLTQAAHLWMTNEYEPTIAAVPVEMLDKLEPAQIFHEIVDHRWFLAQERGGAVTLPEATASYLESVLPARRDEARLLSTNPSDEDLS
MAHHHHHHMLNLSSLLISKKNVKDDGNNSSENEVGGNNDVSSLNNDCVKIKLINMQEYKTKKLLDERKNVNVWSANNKKDNDKKEKKKEKKNEQPKKKESVVTKPKAVGENDTKKIENKDIENKNVTPKKLFVPSAIKQQQQKEALKNKQTPKKEEELFPDLIQSKKSNKTEKEKKKTQPAKKSKKEKADKKVQESTKEQENEFPQIEEIEKIHFNIFDFIDMEKQTYEHIVRNSEKVLQKYKNRSKFVDSMIMCN
IGPVQYHIGGTITYTTNKLIDLGATSVLKSGFVGKQQGYPLNSYFGLRYVGKIQTQEELEKYKYYYLDGNGIGMQDNLRLGDHMFEDVNGDGKLDQNDYVYLGTDDPKLSYSINIGLEWKGFDLSAIFQGVGRRTVFRGGEGNETWRVPMSAIYLNTTTQSIGNTWNPENRNAYYPSYTSIGSINNYNYQCSSWSVENGAYLRLKNLTLGYTLPASWLAKTNAISKLRIYFTGADLWEHSKLRDGWDPEASRKTKDLGRYPFNRTFTVGVNATF
MGSDKIHHHHHHMQDSPVVLKVSHVAKSFRLPTEQATGLKMAFLNWTKGIKGYTEQKVLRDIDFEVHRGDFFGVVGRNGSGKSTLLKIISQIYVPDQGSVDVYGKLVPFIELGVGFNPELTGRENVYLNGALLGFSHSEIDAMYDDIVEFAELEEFMDQKLKNYSSGMQVRLAFSVAIKAQGDILVLDEVLAVGDEAFQRKCDAFFKKVQADPNKTVILVTHSMDAVKKYCNKAILIRDGEIVVSGDKNQVADQYTLDNLKGNEPLPEKKKQNGEYAIGLNATVPELKIVPKSDLSTDGKHPFQFDVVYEYKDSGTHYVAVNLLDLKRGGIVYDSGSRTLVQTSSGKHRFALEMPIDMLNSGVYRLYASVRVDDGDSADSETKMVAFTNEANGCVFSINNPDHEDYALLNEKAMIIRKRK
MSLNISNVLFLLHQKFPDPLPDNPICTREETKLAGHLVNILKLAVDHDIDVEERDEVADETFSDWDSIEFEPNDGVIFSSPTELVFGGRVVTREEANTALDYYRSAKAGKRTLEAMRNRFRWITGRHDMDKLKLYEKDRDNFKESRRNLLKFLGERLYEEVKGRLDSGICLHDRDLKMIALDINKKETHVENFKACQTWITNWKRSYNIVSRKITKFVTRRYVRNKAATLQSAKDFVQGCRMDISSYGPEMIFNADQCGIQKELFGARSLAYLGEKSVERIVQSLSSLTHSFTFLPMIFMNGTLGPKAYMKIAEPTGHFPPSRPIPVCSNLEVHAGKSHIMTKDDMRVWLRNCVAHQQCPKKMLMIVDSWTSFKDHATIQSCMQNGVDLTIRNIPPGTTSLIQPLDVHFNGPWKTLIKNFTSYVMSFCPDYIIANRNNTIMMTSLLYHQVSAALFEPFLKYSWNKAGYTDSHDEFVTPADYCFGDVGEEECGFGGCSEFSFIRCARCNCQICFEHFVVDDQHFCPCP
MSNRDQLFKAPPFENHSPLTWYQAASQLPNFIRDDAQAAAIEHLDRLWTELMMFKRKRNRFLGRSLRSPQVPKGLYFYGGVGRGKSFLMDAFFGCLPYRRKRRVHFHAFMAEIHQRLKTLKSESNPLKSVAAEIAKETRVLCFDEFHVSDIADAMILGRLLENLLNEGVVLVATSNYAPSELYPQGQNRSSFLPTIALIESSLTVLNVDGGEDYRLRTLRPAEIFFTPANEENEAKLAKLFKEMTGITDLNPGISTIHGREIPHKAESGRAIWFDFRALCFGPRSQSDYLYLAEHYEMVFISGLEQLSPQEKAEARRLTWLIDVLYDFRVKLCATGAVDVNHIYTEGDFAEEFTRTASRMVEMQSEVYLEQPHLTLSPKASGG
VTQLPQPTWRWWQQRETEQVQSSHIDGEIVGALIPDLAVLHSEDASRAAVGREKHRCSLDPLGGGFRSRRASMPAGALLLSAVIAIQLDRMNARVFGDGWIGAQACMWVNKFHEESTVTALSPSSPIAQGSIARHPETMQSAYVRIAEGGSRDVAPAAQLQRRRP

Soluble on expression in E. coli, soluble:
MEEVIWEQYTVTLQKDSKRGFGIAVSGGRDNPHFENGETSIVISDVLPGGPADGLLQENDRVVMVNGTPMEDVLHSFAVQQLRKSGKIAAIVVKRPRKVQVAPLQGSPPLSHDDRGFEVIEEFDGRSFRSGYSERSRHSSHDMLSHSWEGNRERGRPHQRTQSRERERSRGRSLERGLDQEDYGRSRERSRGRSLERGLDRDFVSRDHSRGRSIDRDYDRDYERSYHEAYEPDYGGGYSPSYDRRAHPETRYERSRSREHLRSRSPSPESRSRHEHKGQHDPDRPIGVLLTKSKANEEYGLRLGSQIFIKEMTRTGLATKDGNLHEGDIILKINGTVTENMSLTDARKLIEKSRGKLQLVVLRDSKQTLINIPALNDSDSEVEDISEIESNRSFSPEERRQQYSDQDYHSSTEKLKERPSSREETSGRLSRMGATPTPFKSTGDITAAGVTEASREPRYQEEGPVPQPRTAPRVFLRPSPEDEAIYGPNTKMVRFKKGDSVGLRLAGGNDVGIFVAGIQEGTSAEQEGLQEGDQILKVNTQGFRGLVREDAVLYLLEIPKGETVTILAQSRADVYRDILACGRGDSFFIRSHFECEKETPQSLAFTRGEVFRVVDTLYDGKLGHWLAVRIGNELEKGLIPNKSRAEQMASVQNAQRENAGDRADFWRMRGQRSSGGVKKNLRKSREDLAAAVSVSTKFPAYEKVLLREAGFKRPVVLFGPIADIAMERSTELPDLFQTAKTEPKDAGSEKSSGVVRLNTVRQIIEQDKHALLDVTPKAVDLLNYTQWFPIVIFFNPDSRQGVKTIRQRLSPTSNKSSRKLFDQANKLKKTCSHLFTATINVNSANDGWFGSLKDSIQQQQNEAVWVSEGKMEGMDDDAEDRMSYLTAMGADYLSCDSRLISDFEDTDGEGGAYTDNELEEPAEEPLVSSITRSSEPVQHEENIRKSSPEPRAQMRRAASRDQLRELARPQPSSQSRPKARSQNREDSFDYSKSNLPATAGSEIPGGSTKGYPPPIAAKPAFGRPILKPSTPVPMPESEEVGESTEEQEDAPRSVLGRVKIFEKMDHKAKLQRMQELQEAQNARIEIAQKHPDIYAVPIKAPKPDAGLPPHMSSGPPEPQKAPSRLYQDTRGSYGSDPEEEEYRQQLAAHSKRGYYSQPSRYRDTEL
MAVELPKAAIERIFRQGIGERRLSQDAKDTIYDFVPTMAEYVANAAKSVLDASGKKTLMEEHLKALADVLMVEGVEDYDGELFGRATVRRILKRAGIERASSDAVDLYNKLICRATEELGEKAAEYADEDGRKTVQGEDVEKAITYSMPKGGEL
MSLASLIGLAVCTGNAFSPALAAEAKQPNLVIIMADDLGYGDLATYGHQIVKTPNIDRLAQEGVKFTDYYAPAPLSSPSRAGLLTGRMPFRTGIRSWIPSGKDVALGRNELTIANLLKAQGYDTAMMGKLHLNAGGDRTDQPQAQDMGFDYSLANTAGFVTDATLDNAKERPRYGMVYPTGWLRNGQPTPRADKMSGEYVSSEVVNWLDNKKDSKPFFLYVAFTEVHSPLASPKKYLDMYSQYMSAYQKQHPDLFYGDWADKPWRGVGEYYANISYLDAQVGKVLDKIKAMGEEDNTIVIFTSDNGPVTREARKVYELNLAGETDGLRGRKDNLWEGGIRVPAIIKYGKHLPQGMVSDTPVYGLDWMPTLAKMMNFKLPTDRTFDGESLVPVLEQKALKREKPLIFGIDMPFQDDPTDEWAIRDGDWKMIIDRNNKPKYLYNLKSDRYETLNLIGKKPDIEKQMYGKFLKYKTDIDNDSLMKARGDKPEAVTWGEGHHHHHH
MSLKITGLRTRRIHIPFDKPIGTSIHRIEGVSGLLVWLDTDEGITGESYLWAIGRHRVPVLESIVRMLGERAIGKDPRDTTARFDEMWTEINFLGHKGVSLFGIAAIDWACWDILGQSLGASVSRLLGRRRDRVTAYASGGLWASMTIPELEAQARDFVAQGFTAVKMRIGKPDIGEDIERVAAVRSAIGSRIKLMADANQGLSVNHAIRLGRKLETFDLVWFEEPVQAYDLEGSARVAAEIDTPIASGETEYGRYGFRDMLERKSADVLMPDLERVGGVTEWVRVAHMAAAYDVPVSPHIFSEHSLQLCGAISNVNYAEHMPWFAELFQERLEMVDGDLLIPDRPGMGFRFDPDAVERYADEGHHHHHH
MSLIAKVVVDVAAKQTDRIFEYHIPVELEKDIKVGSRVVVPFGPRKIQGFVVGLSEDSEFKGQLKDLLVVVDEMPPLTPELVTLSADLAENIYSYRIKILQAMLPWVMRANYRKLLVPANAQAEKMQFFQGDPIDLNKITDLKDIKKIRKLLRDGDAKIEYVVENKAKKKKENQYELVLESEEYTKIYNTLRQNAVKQKQLLMDIIENEASYPKNQKDFEKKLGLTASVLNTAVKRGWLKRKEVEVYRDPLSGFKDNKKSAPVKLNDEQQFALNQITAAIDKRKAETFLLEGITGSGKTEVYLHAISKALEQGRNALMLVPEISLTPQMVRQVKSRFGQAVAVLHSALSEGEKYDEWRRIRRGETRVVVGARSAVFAPLDNIGLIVIDEEHESSYKQETDPRYNARDVAIWRSKYHHCPLVLGSATPSLGSRARAQKNVYKLLRLTKRANNKKLPKVNLIDLKHVQFAGGQFDLSVNLVDAIKKRLDNKEQVILMLNRRGFANFMLCRECGFVLKCPNCDVSLNLHKDTNSMQCHYCGHTERVPSRCPNCQSSKIRFLGTGTQKVQEELEELLPGARILRMDVDTTRKKGSYKRILDSFGNHEADILLGTQMIAKGLDFPNVTLVGVINADTGLWLSDYNASEKTFELLTQVAGRAGRANKEGEVLIQTYNPEHYAIQLAQTQNYERFYGYEMNVRHAGNYPPYFFTVLISIAAKKEQNAAREAFRIKRYLSQHLHEEMIILGPTPSAISRVKNQYYYQILVKYKKEPNIKELLHHIQDSAQEAKKYGLNVFIDNEPEKIMEGHHHHHH
MFSPEQIAGKDVRLLRIKKEGSLDLALEGGVDSPVGKVVVSAVYEGGAAERHGGVVKGDEIMAINGKIVTDYTLAEAEAALQKAWNQGGDWIDLVVAVCPPKEYDDELTFF
GMMNKPAPRELEVIRSTYITPHMLRITLGGAGLAGFPADQESAYIKLLFPQAGERPLMRTYTIRQQRDDEIDVDFVLHDTDGPASSWAKTAQVGELIQIGGPGLKKLINFEADWFLLAGDMTALPAISVNLAKLPNNAVGYAVIEVLSEADIQPLVHPEHVELHWVINPEADPEGRPLVERIAQLPWLAGEPAVWIACEFNSMRALRRHFKQAHALPKSHFYTSSYWKIGCNEGEHKLVKQEDEQLENGASV
